Among the data in the supplement of paper PMC10567573 are protein stability index values, retold here.

A short description of this series: protein stability index of a GFP-peptide fusion (GPS, HEK-293T) (PSI 1-6); higher = more stable.
Setting [1] is: treatment: DMSO, c terminus: a fixed tail appended.
Setting [2] is: treatment: MLN4924 1 uM, 8 h, c terminus: a fixed tail appended.

± gives the standard deviation.
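Also: 24-mer peptide tiles fused after GFP, lentivirally expressed, FACS-sorted into six equal bins by GFP/DsRed ratio, decoded by Illumina sequencing, PSI is the read-weighted mean bin number.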

With LHTAREFSEEDEEETTSQDWGTPR [RTN2], the protein stability index under setting [1] was 5.4 ± 0.27 and the protein stability index under setting [2] came to 5.46 ± 0.23. Regarding LIDYKSYMDTKLLVARFLEQSSCT [FAM189A2], the protein stability index is, setting by setting: under setting [1], 2.38 ± 0.091; under setting [2], 2.25 ± 0.19. On to LIVGLQGMDLNLEAEALAGTGLVL [HDAC6], for which the protein stability index by setting is: under setting [1], 2.91 ± 0.48; under setting [2], 2.6 ± 0.62. Taken in the same sequence, the figures for LKAEELLLKIHEVSTVSHADADCF [CASP6] were 3.03 ± 0.15 and 3.14 ± 0.28. Taken in the same sequence, the figures for LKDNPLDPVLAKVAGDCLDEKQCK [LRRC59] were 5.13 ± 0.44 and 5.19 ± 0.27. Taken in the same sequence, the figures for LKGGLQEVAEQLELERIGPQHQAG [CNOT7] were 4.67 ± 0.14 and 4.94 ± 0.22. In turn, LKNHFQSVLEQLELQEKQKNEKLI [TAF7L] showed a protein stability index under setting [1] of 2.82 ± 0.12 and a protein stability index under setting [2] of 2.95 ± 0.22. The corresponding values for LKNIRHRPGGGRVKIESVKLDFKE [MAP2] are 3.22 ± 0.29 and 3.52 ± 0.38. Taken in the same sequence, the figures for LKVVHELPACTLCAGPLEDAVTIP [TRIM15] were 2.76 ± 0.13 and 3.15 ± 0.26. Regarding LLFEYPESSSPARGIAIVSVLVIL [KCNA4], the protein stability index is, setting by setting: under setting [1], 2.92 ± 0.2; under setting [2], 3 ± 0.36.

For LLGLGVLLFSGGLSESETGPMEEV [PBXIP1], the protein stability index by setting is: under setting [1], 2.22 ± 0.062; under setting [2], 2.32 ± 0.31. The corresponding values for LLNAASTVARPVFTEYQASAFGNV [RHOBTB3] are 2.48 ± 0.21 and 2.72 ± 0.31. The corresponding values for LLPYFYIIYMAILLTHRCLRDEHR [DHCR7] are 3.25 ± 0.52 and 3.05 ± 0.2. The corresponding values for LLQKYNMQFLIRSHECKPEGYEFC [PPEF2] are 2.5 ± 0.84 and 2.27 ± 0.49. With LLSQEKLQEQHLSSPQGVQLDIAS [BCL2L13], the protein stability index runs as follows: under setting [1], 4.45 ± 0.14; under setting [2], 4.36 ± 0.15.

With LLVQDATPVSNSLLPEKAFSDIPS [GFOD1], the protein stability index under setting [1] was 3.35 ± 0.24 and the protein stability index under setting [2] stood at 3.37 ± 0.22. As for LNGYRLGERVLQVSFKTSKQHKA [ELAVL3], the protein stability index worked out at 3.16 ± 0.29 (treatment: DMSO, c terminus: native) and 2.69 ± 0.42 (treatment: MLN4924 1 uM, 8 h, c terminus: native).

Regarding LNSVERYDPKTNQWSSDVAPTSTC [KLHL20], the protein stability index under setting [1] was determined as 4.18 ± 0.097 and the protein stability index under setting [2] turned out to be 4.24 ± 0.43. The corresponding values for LPCTSRCPRPCRESAFKLSTGTSR [SCNN1D] are 2.64 ± 0.99 and 2.9 ± 0.38. LPCVVQEGAIVMARGRHVGSSETN [PYCR3] came in with a protein stability index under setting [1] of 4.42 ± 0.36.

Turning to LPGPKGDDGKLGATGPMGMRGFKG [SCARA5], the protein stability index is, setting by setting: under setting [1], 4.7 ± 0.46; under setting [2], 4.48 ± 0.2.

With LPLSHIAAQMMDIWVPIKIGALTY [ACSBG2], the protein stability index under setting [1] was found to be 2.79 ± 0.76 and the protein stability index under setting [2] worked out at 2.73 ± 0.82. LQDLQVTDILPQMITLSEAYIQIW [USP39]: the protein stability index stood at 2.58 ± 0.54 under setting [1] and 2.55 ± 0.77 under setting [2].

For the sequence LQHTQELFPQWHLPIKIAAIIASL [STEAP1], the protein stability index reads like this: under setting [1], 2.16 ± 0.35; under setting [2], 2.1 ± 0.24. Taken in the same sequence, the figures for LQLKQELAMLNAVTEDLRLKDWEH [SCARA5] were 3.36 ± 0.046 and 3.34 ± 0.24. The sequence LQNEVPPQPDPVFLEALSSRYLGD [SERTAD3] registered a protein stability index under setting [1] of 4.32 ± 0.15 and a protein stability index under setting [2] of 4.25 ± 0.14. Regarding LQSCQAEIIELRRTVNALEIELQA [KRT34], the protein stability index amounted to 2.15 ± 0.45 under setting [1] and 2.11 ± 0.29 under setting [2]. LQSGQEYVFFVLAVMEHAESKMYA [PTPRD]: the protein stability index was 2.4 ± 0.63 under setting [1] and 2.51 ± 0.75 under setting [2]. The corresponding values for LRHSFQKQQREKTRWLNSGRGDEA [ADD1] are 3.63 ± 0.5 and 3.92 ± 0.35. The corresponding values for LSDKSCQSFISWTGDGWEFKLADP [ETS2] are 2.49 ± 0.22 and 2.59 ± 0.36. The corresponding values for LSDNATAFSNRSKQLRRQMWWRGC [VAMP4] are 2.54 ± 0.048 and 2.67 ± 0.33.

Sequence LSDVQNPAISITENVLHFKAQGHG [HACD3] showed a protein stability index under setting [1] of 4.13 ± 0.19 and a protein stability index under setting [2] of 4.28 ± 0.15. Taken in the same sequence, the figures for LSEDDKLQGAASHVPEGFDPTGPA [EHMT1] were 5.333 ± 0.053 and 5.4 ± 0.073. The corresponding values for LSEYVSRMKETQKSIYYITGESKE [HSP90AB1] are 3.69 ± 0.24 and 3.67 ± 0.2. Taken in the same sequence, the figures for LSPLSLAQYDSWPHYPEYFQQPAP [LOXL2] were 2.62 ± 0.12 and 2.87 ± 0.18.

For LSSAVWPGGETEALTRLERHLERK [CRY1], the protein stability index runs as follows: under setting [1], 4.44 ± 0.22; under setting [2], 4.27 ± 0.061. Consider LSTLLAPYQALRLWARGTWTQATG [SOAT2], for which the protein stability index is 2.4 ± 0.55 under setting [1] and 2.08 ± 0.55 under setting [2]. Consider LSVSNNQEPDFIDDIEEKTPISNE [KMT2E], for which the protein stability index is, setting by setting: under setting [1], 4.69 ± 0.37; under setting [2], 4.75 ± 0.21. The corresponding values for LTPKGGVRTSYQPSSPGRFTKETT [TRIM29] are 4.17 ± 0.16 and 4.21 ± 0.11. As to LTPKSTPVKTLPFSPSQFLNFWNK [MYBL2], the protein stability index under setting [1] was 2.24 ± 0.26 and the protein stability index under setting [2] was determined as 2.4 ± 0.18. With LTQDWVQENYLEYRQVPGSDPARY [MAGEA10], the protein stability index reads like this: under setting [1], 4.06 ± 0.22; under setting [2], 3.88 ± 0.2.

LVVADDKMAAFHGAGLKRYLLTVM [ADAMTS4]: the protein stability index is 2.72 ± 0.63 under setting [1] and 2.35 ± 0.61 under setting [2].

Take LVVILLSIVAVGFHIFRTLEVNRL [PKD2L1]: the protein stability index was found to be 3.44 ± 0.88 under setting [1] and 3.12 ± 0.23 under setting [2]. Consider LWHLAITDRSFNIVDIKPANMEDL [PPP2R2C], for which the protein stability index came to 2.36 ± 0.23 under setting [1] and 2.41 ± 0.28 under setting [2].

Turning to LWNGDKYAATTTPFTPLHIKVKPK [TRIM39], the protein stability index by setting is: under setting [1], 2.99 ± 0.27; under setting [2], 3.28 ± 0.38.

In turn, MAFLDKRLQVKEHQHEEIQNVRNH [ATL3] came in with a protein stability index under setting [1] of 3.84 ± 0.069 and a protein stability index under setting [2] of 3.98 ± 0.23.

Take MAPDPVAAETAAQGPTPRYFTWDE [FADS1]: the protein stability index runs as follows: under setting [1], 4.7 ± 0.17; under setting [2], 4.83 ± 0.27. The corresponding values for MAPKTKKGCKVTLPEKPVKLASHT [FBF1] are 4.16 ± 0.15 and 4.21 ± 0.087. As to MAPPAAPGRDRVGREDEDGWETRG [HES6], the protein stability index is, setting by setting: under setting [1], 5.2 ± 0.37; under setting [2], 5.48 ± 0.16. The corresponding values for MAQQQMTSSQKALMLELKSLQEEP [UBE2R2] are 4.33 ± 0.28 and 4.29 ± 0.24. Taken in the same sequence, the figures for MATSELSCEVSEENCERREAFWAE [TCAP] were 5.07 ± 0.079 and 5.08 ± 0.32. Taken in the same sequence, the figures for MAVAFLSAQRSKDPNSQVGACIVN [DCTD] were 2.01 ± 0.16 and 2.27 ± 0.25. Turning to MDAAPGVDLSRILNEMRDQYEKMA [KRT17], the protein stability index under setting [1] was found to be 3.82 ± 0.18 and the protein stability index under setting [2] amounted to 3.8 ± 0.17. The corresponding values for MDGRMEAATRGGSHLQAAAQTPPR [SCNN1D] are 4.92 ± 0.39 and 4.93 ± 0.061. On to MDTSHQPLLPAPPKTPMDGADCGI [LYSMD4], for which the protein stability index by setting is: under setting [1], 5.04 ± 0.2; under setting [2], 5.09 ± 0.33. The corresponding values for MEGLEENGGVVQVGELLPCKICGR [ZC2HC1A] are 4.13 ± 0.21 and 4.26 ± 0.48. The corresponding values for MERPQPDSMPQDLSEALKEATKEV [HMOX1] are 5.44 ± 0.25 and 5.43 ± 0.22. Consider MERSPDVSPGPSRSFKEELLCAVC [TRIM35], for which the protein stability index came to 3.47 ± 0.18 under setting [1] and 3.6 ± 0.25 under setting [2]. In the case of MFQGWNCGDYFPDGITNGASWYSL [CPN1], the protein stability index reads like this: under setting [1], 2.7 ± 0.37; under setting [2], 2.31 ± 0.45. The corresponding values for MFRNHLCLVFELLSYNLYDLLRNT [DYRK1B] are 2.54 ± 0.23 and 2.85 ± 0.72.

As to MGKLLQQPNTYADFEFLAFWQTQY [PKD2L1], the protein stability index by setting is: under setting [1], 2.21 ± 0.56; under setting [2], 2.27 ± 0.23. The corresponding values for MHPGRTTGKGPSTHTQIDQQPPRL [M1AP] are 4.45 ± 0.1 and 4.511 ± 0.026. Regarding MKLEKEEFVTLKAIALANSDSMHI [ESRRG], the protein stability index came out at 2.46 ± 0.22 under setting [1] and 2.48 ± 0.28 under setting [2].

With MLELRHRGSCPGPREAVSPPHREG [CDS1], the protein stability index reads like this: under setting [1], 4.26 ± 0.29; under setting [2], 4.39 ± 0.29. Taken in the same sequence, the figures for MMPLAEAGALAQGGGPSATEWACI [C6orf223] were 3.65 ± 0.34 and 3.52 ± 0.25.

Consider MMRMFSENLAHHLEIDSGVITLDP [TRIM15], for which the protein stability index reads like this: under setting [1], 2.52 ± 0.16; under setting [2], 2.69 ± 0.37.

MMVRQMKEDAKGKSEEELAECFRI [TNNC2] yielded a protein stability index under setting [2] of 4.3 ± 0.52.

Turning to MMYSAELWRYRTITFSGRPSRVHA [FBXO39], the protein stability index was 2.23 ± 0.091 under setting [1] and 2.46 ± 0.2 under setting [2]. As for MNIIELEIPDQNIDVEALQVAFGS [GMCL1], the protein stability index stood at 2.86 ± 0.31 under setting [1] and 2.73 ± 0.072 under setting [2]. The corresponding values for MPLREGSSFQDLLGDALAGPPRAP [HES6] are 3.86 ± 0.34 and 4.05 ± 0.4. The corresponding values for MQAEAEAASVRMRGEAEAFAIGAR [FLOT1] are 4.62 ± 0.31 and 4.75 ± 0.31. Taken in the same sequence, the figures for MQCPVIAVNSGGPLESIDHSVTGF [ALG2] were 2.83 ± 0.42 and 3.26 ± 0.3.
